Measurements taken from patent US20230366033A1, “METHODS FOR TREATING CANCERS WITH INHIBITORS TARGETING THE ROLE OF GRB2 IN DNA REPAIR” (Board of Regents, The University of Texas System, priority 2020, published 2023).

Tests used:
[1] = target: GRB2 K109R mutant, bacterially expressed and purified (UniProt P62993); test: MST, 100 nM Atto488-labelled K109R GRB2, peptide titrated
[2] = target: GRB2-SH2 domain, purified, Atto488-labelled (UniProt P62993); test: MST; 100 nM Atto488-labelled GRB2-SH2 domain, peptide titrated; pEGFR phosphopeptide, comparator; cited to a figure and Ahmed et al., 2015
[3] = target: RING2 E3 ubiquitin ligase, endogenous, in HEK293T cells (UniProt Q99496); test: GRB2 immunoprecipitation-mass spectrometry in HEK293T cells (mean of three data sets) [panel G]
Chain of RING2 E3 ubiquitin ligase, endogenous, in HEK293T cells (Q99496 2-336 limits assumed): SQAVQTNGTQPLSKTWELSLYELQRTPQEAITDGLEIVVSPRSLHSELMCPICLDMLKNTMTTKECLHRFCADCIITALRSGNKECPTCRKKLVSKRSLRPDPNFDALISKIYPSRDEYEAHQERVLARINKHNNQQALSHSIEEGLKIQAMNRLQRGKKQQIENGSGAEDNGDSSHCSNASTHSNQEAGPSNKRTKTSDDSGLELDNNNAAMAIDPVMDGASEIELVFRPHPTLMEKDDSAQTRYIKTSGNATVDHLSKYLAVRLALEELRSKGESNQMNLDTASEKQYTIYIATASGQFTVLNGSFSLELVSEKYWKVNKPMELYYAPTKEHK

HERC1 (human) = HERC1 (human) (UniProt Q15751); test: as above
Chain of HERC1 (human) (Q15751 whole entry): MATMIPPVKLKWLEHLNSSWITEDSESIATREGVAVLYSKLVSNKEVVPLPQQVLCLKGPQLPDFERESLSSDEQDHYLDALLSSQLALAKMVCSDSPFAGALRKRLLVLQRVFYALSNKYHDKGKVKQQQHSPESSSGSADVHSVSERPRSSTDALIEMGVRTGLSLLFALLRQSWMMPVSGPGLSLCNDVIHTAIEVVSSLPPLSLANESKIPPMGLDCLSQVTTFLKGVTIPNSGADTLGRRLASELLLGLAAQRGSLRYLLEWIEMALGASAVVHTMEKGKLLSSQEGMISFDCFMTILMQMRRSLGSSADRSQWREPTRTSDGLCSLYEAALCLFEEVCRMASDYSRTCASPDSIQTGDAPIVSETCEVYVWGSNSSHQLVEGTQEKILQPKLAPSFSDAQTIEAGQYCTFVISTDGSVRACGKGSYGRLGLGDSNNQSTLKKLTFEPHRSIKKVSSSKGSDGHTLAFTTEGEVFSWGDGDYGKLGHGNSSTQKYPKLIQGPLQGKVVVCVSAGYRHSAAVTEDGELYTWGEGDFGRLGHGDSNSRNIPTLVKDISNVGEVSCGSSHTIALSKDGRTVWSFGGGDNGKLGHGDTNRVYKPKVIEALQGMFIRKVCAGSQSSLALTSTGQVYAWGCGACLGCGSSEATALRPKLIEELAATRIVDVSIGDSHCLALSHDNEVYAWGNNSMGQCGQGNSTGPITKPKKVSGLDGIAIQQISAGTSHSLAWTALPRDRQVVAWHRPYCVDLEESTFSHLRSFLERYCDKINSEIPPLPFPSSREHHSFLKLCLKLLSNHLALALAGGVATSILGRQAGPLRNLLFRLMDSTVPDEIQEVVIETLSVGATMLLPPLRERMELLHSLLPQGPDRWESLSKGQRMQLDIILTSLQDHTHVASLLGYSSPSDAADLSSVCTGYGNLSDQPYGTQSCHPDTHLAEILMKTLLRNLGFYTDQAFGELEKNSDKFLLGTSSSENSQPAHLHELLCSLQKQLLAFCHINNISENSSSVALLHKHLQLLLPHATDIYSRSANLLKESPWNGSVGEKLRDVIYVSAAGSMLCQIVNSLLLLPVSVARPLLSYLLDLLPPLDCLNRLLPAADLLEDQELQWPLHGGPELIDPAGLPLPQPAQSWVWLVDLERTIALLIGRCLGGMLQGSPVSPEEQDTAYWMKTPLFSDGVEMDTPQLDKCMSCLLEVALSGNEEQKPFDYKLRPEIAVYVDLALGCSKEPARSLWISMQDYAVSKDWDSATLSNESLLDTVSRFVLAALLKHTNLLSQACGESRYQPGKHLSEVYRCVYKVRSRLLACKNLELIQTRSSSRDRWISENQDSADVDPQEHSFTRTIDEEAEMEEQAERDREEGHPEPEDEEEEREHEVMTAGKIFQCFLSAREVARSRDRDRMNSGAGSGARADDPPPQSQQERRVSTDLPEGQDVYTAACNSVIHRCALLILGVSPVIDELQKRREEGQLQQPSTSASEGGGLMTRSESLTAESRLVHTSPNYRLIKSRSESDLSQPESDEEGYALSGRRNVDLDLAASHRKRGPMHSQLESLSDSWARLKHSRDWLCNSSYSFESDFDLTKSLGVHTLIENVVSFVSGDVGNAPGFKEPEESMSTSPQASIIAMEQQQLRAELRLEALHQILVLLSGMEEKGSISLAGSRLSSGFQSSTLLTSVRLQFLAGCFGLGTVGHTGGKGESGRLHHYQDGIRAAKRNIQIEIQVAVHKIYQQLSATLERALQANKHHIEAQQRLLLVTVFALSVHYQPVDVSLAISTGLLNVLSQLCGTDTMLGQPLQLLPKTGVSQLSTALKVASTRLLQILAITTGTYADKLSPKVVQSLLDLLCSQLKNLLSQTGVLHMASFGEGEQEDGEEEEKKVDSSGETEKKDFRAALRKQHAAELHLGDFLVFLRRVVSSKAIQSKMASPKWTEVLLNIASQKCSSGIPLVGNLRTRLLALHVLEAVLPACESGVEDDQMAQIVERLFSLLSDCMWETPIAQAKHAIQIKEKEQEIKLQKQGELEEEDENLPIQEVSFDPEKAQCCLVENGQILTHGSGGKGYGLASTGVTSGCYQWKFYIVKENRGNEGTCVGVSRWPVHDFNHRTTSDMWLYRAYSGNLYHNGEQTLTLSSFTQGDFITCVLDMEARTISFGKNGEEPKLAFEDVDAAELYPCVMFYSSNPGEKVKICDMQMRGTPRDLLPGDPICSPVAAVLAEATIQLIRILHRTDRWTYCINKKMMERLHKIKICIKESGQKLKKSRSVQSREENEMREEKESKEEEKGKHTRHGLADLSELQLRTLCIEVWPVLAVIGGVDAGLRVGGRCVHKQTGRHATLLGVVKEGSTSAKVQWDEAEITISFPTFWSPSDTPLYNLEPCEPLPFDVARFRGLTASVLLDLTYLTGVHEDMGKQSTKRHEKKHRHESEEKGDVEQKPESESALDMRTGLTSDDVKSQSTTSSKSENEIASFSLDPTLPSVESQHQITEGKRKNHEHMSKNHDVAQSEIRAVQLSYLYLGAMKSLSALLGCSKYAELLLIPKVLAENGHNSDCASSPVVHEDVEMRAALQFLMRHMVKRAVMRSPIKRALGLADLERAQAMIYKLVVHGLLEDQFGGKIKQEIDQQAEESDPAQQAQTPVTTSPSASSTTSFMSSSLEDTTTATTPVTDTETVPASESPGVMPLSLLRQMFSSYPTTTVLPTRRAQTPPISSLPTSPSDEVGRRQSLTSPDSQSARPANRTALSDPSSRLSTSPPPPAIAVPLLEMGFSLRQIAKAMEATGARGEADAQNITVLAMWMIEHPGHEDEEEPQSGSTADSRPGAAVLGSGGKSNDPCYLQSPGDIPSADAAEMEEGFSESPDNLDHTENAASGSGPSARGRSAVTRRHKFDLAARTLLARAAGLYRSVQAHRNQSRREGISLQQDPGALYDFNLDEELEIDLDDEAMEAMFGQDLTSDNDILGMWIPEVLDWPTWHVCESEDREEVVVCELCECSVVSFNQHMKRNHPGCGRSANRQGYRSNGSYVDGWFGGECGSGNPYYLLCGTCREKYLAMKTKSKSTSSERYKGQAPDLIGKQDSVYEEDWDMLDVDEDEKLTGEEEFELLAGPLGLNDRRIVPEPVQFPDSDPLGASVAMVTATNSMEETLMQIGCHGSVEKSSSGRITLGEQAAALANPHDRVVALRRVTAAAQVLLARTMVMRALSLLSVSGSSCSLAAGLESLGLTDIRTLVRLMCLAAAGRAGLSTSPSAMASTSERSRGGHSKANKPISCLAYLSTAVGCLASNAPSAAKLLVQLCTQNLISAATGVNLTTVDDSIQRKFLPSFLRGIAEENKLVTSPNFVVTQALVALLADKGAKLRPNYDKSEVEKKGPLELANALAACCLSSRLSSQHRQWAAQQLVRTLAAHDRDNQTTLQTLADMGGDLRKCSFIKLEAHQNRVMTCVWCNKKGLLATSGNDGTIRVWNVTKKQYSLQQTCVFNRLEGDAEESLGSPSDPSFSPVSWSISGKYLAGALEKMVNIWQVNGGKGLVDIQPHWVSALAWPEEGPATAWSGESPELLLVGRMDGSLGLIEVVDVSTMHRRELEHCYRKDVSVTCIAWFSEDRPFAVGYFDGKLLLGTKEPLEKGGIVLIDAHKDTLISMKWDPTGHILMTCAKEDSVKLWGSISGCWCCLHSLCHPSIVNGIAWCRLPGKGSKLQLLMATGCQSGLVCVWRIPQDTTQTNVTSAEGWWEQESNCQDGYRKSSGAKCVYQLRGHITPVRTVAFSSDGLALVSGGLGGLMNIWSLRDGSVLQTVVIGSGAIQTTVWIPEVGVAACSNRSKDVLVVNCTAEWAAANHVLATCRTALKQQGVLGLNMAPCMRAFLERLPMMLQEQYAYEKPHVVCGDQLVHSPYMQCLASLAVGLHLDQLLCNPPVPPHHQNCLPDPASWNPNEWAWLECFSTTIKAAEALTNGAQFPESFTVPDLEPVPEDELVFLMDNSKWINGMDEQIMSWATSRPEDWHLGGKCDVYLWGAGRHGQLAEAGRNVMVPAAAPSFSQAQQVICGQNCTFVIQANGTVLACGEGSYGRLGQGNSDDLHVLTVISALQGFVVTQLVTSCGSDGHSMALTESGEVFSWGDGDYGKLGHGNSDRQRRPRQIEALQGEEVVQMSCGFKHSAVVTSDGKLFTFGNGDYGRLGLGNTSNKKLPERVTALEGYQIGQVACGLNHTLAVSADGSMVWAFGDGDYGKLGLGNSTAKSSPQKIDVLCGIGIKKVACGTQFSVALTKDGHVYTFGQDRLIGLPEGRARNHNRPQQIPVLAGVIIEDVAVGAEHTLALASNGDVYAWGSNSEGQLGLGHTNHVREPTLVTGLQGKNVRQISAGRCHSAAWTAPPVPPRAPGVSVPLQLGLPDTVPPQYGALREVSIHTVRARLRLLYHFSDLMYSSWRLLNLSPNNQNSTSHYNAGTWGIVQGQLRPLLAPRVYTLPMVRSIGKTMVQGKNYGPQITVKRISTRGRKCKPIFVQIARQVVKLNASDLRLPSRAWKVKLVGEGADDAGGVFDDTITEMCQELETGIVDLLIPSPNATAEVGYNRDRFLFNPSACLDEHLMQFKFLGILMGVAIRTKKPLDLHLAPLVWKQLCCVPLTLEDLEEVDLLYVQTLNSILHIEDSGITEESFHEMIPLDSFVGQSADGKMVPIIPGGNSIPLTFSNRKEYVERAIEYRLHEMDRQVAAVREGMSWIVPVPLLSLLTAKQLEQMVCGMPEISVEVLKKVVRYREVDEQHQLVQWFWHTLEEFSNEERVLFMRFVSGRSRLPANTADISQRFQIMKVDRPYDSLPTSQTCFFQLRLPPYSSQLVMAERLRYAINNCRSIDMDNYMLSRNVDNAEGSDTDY

[4] = target: CBLL1 E3 ubiquitin ligase, endogenous, in HEK293T cells (UniProt Q75N03); test: as above
[5] = target: Histone H2AX, endogenous, in HEK293T cell extracts (UniProt P16104); test: Strep-Tactin purification of Strep-GRB2 from HEK293T nuclear extracts, mass spectrometry (mean of three data sets) [panel A]

Row | Substance | Kd [1] | Kd [2] | Coverage(%) [3] | Peptides [3] | Coverage(%) (HERC1 (human)) | Peptides (HERC1 (human)) | Coverage(%) [4] | Peptides [4] | Coverage(%) [5] | Peptides [5]
1 | Phosphorylated EGFR synthetic peptide FLPVPE(pY)INQSVPKR | 2.6 µM | 7.2 µM |  |  |  |  |  |  |  | 
2 | Strep-tagged wild-type GRB2 expressed in cells (HEK293T; reconstituted GRB2-KO cells) (from UniProt P62993 1-217) |  |  | 15% | 4 peptides | 0% | 1 peptides | 3% | 1 peptides | 71% | 16 peptides
